Experimental data reported in publication PMC9239096.

Tested on: T1, KdpE-MBP (Sinorhizobium fredii CCBAU45436 (SF4)), ORF:2638478e
T1 sequence: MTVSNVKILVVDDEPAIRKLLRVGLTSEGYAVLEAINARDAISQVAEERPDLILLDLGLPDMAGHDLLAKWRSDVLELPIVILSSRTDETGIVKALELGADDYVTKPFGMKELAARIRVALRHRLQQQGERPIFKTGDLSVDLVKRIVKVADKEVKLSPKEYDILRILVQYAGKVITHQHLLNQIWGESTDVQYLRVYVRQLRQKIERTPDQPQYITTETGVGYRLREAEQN
Test: EMSA
Conditions: 25 mM Tris-HCl pH 8.0, 0.5 mg/mL BSA, 0.1 mg/mL sonicated salmon sperm DNA, 5% glycerol, 0.05% DDM; 10 uL, 20 C, 30 min; 6% native PAGE

For “TCCTCCTGCGCCTCTCTCGAACCTTTATGCGGTTCGGAGCCATATTCCTGACAAGATCCATCCACCGCCGCGCCGAACTCGATCGTCGCGCCGGGATGCGCACATCGATCGCGATCACCTGCCGGGCGGCCCGGCGCTGCCTCCAGGTGACGCGCAGTCAGTAGAAACAACGCACAGGGATTACCGACATGGACATTGTCGTTCTCGCAATAGGCATCGTGTTCTTCGCCTTATCGTTTGCCTATGTCCGGGCGTGCAGCAACCTCTAATCGCGGAGCGGAAAGATG (double strand) [Probe1_kdpF]”, the binding was “no binding”.
